Laboratory results published in patent publication US20240317847A1 (Bayer, published 2024).

Columns and labels:
[1] = target: T1, human IL-11 (Invigate, e.g., lot #C121021-19) (human, UniProt P20809 22-199); assay: Tri-complex ELISA: antibody titrated against 8 nM human IL-11, 2 nM human gp130-human-Fc and 2 nM murine IL11RA-murine-Fc
T1 construct: Bought protein; also called hIL-11; hIL11
T1 sequence: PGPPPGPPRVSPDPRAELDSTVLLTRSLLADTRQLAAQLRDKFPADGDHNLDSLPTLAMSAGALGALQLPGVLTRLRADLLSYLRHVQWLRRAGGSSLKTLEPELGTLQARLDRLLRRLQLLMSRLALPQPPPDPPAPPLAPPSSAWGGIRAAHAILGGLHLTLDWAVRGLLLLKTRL
Protocol: (§1) In the Tri-complex ELISA format IL-11 antibodies are tested for their ability to inhibit the formation of a complex consisting of murine or human gp130-Fc fusion protein, with murine or human IL-11, and a murine IL11RA-Fc fusion protein. The assay format was adapted according to FIG. 18 (a, b), depending on whether murine or human IL-11 IgG antibodies were tested.
(§2) The assay was performed using High Binding microtiter plates (Greiner, #781077). In a first step, 25 μl of goat anti human IgG (Sigma, #12136), diluted 1:1000 in coating buffer (Candor, #121125) was coated on the plate at 4° C. overnight. Next day, the plate was washed one time with 50 μl PBST and then blocked with 50 μl SmartBlock (Candor, #113125) for one hour at room temperature (RT). […] After three additional washes of the coated and blocked microtiter plate with PBS-T, 25 μl of each mixture were added and the assay plate was incubated for one hour at room temperature. After three additional washes, anti-mouse-gp130 biotinylated antibody (R&D, #BAF468) or anti-human gp130 biotinylated antibody (R&D, #BAF228), both 1:1000 in 10% SmartBlock PBS-T, was added and incubated for 1 hour at RT. After three additional washes, a Streptavidin-Peroxidase conjugate (Sigma, #S5512) 1:1000 in SmartBlock PBS-T was added and incubated for one hour at room temperature. After a final three washes, AmplexRed (Fisher Scientific, A12222), 1/1000 in PBS, 0,003% H₂O₂, was added as substrate and incubated for 15 min at RT in the dark. Then, the fluorescence was measured with a plate reader at 535/595 nm. Signals from dose responses were used to calculate IC50 values using GraphPad Prism software.

[2] = target: T2, murine IL-11 (Invigate, e.g., lot #C210819-09) (mouse, UniProt P47873 22-199); assay: Tri-complex ELISA: antibody titrated against 8 nM murine IL-11, 2 nM murine gp130-human-Fc and 2 nM murine IL11RA-murine-Fc
T2 construct: Bought protein; biotinylated where captured on streptavidin plates; also called mIL-11; mIL11
T2 sequence: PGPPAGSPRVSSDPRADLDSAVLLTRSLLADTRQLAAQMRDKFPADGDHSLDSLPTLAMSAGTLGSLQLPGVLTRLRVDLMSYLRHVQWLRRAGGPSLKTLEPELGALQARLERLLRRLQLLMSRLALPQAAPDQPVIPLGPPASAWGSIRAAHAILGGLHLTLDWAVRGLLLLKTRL
Protocol: as §1, §2

cynomolgus IL-11 = target: T3, cynomolgus IL-11 (cynomolgus, UniProt P20808 22-199); assay: cell-based or functional assay
T3 sequence: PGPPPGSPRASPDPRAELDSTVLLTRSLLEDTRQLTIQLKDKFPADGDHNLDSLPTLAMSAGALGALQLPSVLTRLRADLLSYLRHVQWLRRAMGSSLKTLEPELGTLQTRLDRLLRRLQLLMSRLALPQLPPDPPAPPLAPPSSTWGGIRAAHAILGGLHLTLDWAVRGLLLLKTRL

murine IL-11 = target: T4, murine IL-11 (mouse, UniProt P47873 22-199); assay: cell-based or functional assay
T4 sequence: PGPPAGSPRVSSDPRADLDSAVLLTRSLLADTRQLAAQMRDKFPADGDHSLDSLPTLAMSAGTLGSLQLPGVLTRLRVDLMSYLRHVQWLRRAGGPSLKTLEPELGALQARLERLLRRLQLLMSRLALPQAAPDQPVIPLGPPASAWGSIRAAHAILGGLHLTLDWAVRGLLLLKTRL

human IL2Ra = target: T5, human IL2Ra (human, UniProt P01589 22-240, limits assumed); assay: ELISA on coated IL2Ra, signal ratio to isotype control at 1E-07 M antibody
T5 construct: coated on the ELISA plate; also called IL-2 receptor alpha
T5 sequence (looked up): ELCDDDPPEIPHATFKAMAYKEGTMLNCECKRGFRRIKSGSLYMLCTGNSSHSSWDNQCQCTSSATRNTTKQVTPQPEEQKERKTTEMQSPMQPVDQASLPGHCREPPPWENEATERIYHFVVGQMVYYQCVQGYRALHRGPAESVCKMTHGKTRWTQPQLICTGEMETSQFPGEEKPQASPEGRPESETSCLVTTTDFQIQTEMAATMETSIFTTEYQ
Protocol: IL2RA (Peprotech, Germany, #200-02RC) was coated at 1 or 0 μg/ml (buffer only control) in 30 μl coating buffer (Candor, #113500) per well on a 384 well microtiter plate (Maxisorb, Nunc, #460518) over night at 4-8° C. After two washes with 50 μl/well washing buffer (PBS+0.05% Tween, pH 7.4), the plates were incubated for two hours at room temperature with 50 μl/well SmartBlock (Candor, #113500). After blocking, the plates were washed three times with washing buffer. Then, a dilution series of the respective antibody (1E-7 [M] down to 2E-13 [M]) in PBS+0.05% Tween, 10% SmartBlock were added in 30 μl to the microtiter plate and incubated for 90 min at room temperature. After three additional washes, 30 μl anti mouse IgG HRP-conjugated antibody (Biotechne, HAF007), diluted 1:1000 in PBS+0.05% Tween (pH 7.4), were added per well and incubated for one hour. After three additional washes, a mixture of Amplex red (Invitrogen, #12222, 10 mM stock solution in DMSO) 1:1000 diluted in PBS and H2O2 (30%, Merck, #107209)) diluted 1:10000 in PBS were added as substrate with 30 μl per well and incubated for 20 min in the dark. Relative fluorescence was measured with a microtiter plate reader at 535/590 nm.
Bispecific antibodies were subjected to the experimental assay procedure described in Example 20. Ratios of the signals generated at an antibody concentration of 1E-07 [M] by the respective bispecific antibody versus those of an isotype control antibody were calculated and are shown in Table E29. The bispecific antibodies show no binding to IL-2 Ra.

B1: TPP-18087 (antibody, mouse IgG1, V domains shown)
VH: EVQLLESGGGLVQPGGSLRLSCAASGFTFSHYDMNWLRQAPGKGLEWVGVISYDGSNKFYADFVKGRFTISRDNSKNTLYLQMNSLRAEDTAVYYCARTPGSHFDYWGQGTLVTVSS
VL: QSVLTQPPSASGTPGQRVTISCSGSSSNIGNNAVNWYQQLPGTAPKLLIYYDDLLPSGVPDRFSGSKSGTSASLAISGLRSEDEADYYCSAWDDSLNGVVFGGGTKLTVLG
notes: mIgG1, Lambda
Efficacy (%) [1]: 60.4%
IC50 [1]: 55 nM
Efficacy (%) [2]: 5.5%

B2: TPP-19528 (antibody, mouse IgG1, V domains shown)
VH: EVQLLESGGGLVQPGGSLRLSCAASGFTFSIYAMSWVRQAPGKGLEWVSSISDTGDRTYYADSVKGRFTISRDNSKNTLYLQMNSLRAEDTAVYYCARSNWGSLDYWGQGTLVTVSS
VL: QSVLTQPPSASGTPGQRVTISCSGSSSNIGSNYVYWYQQLPGTAPKLLIYYDDLLPSGVPDRFSGSKSGTSASLAISGLRSEDEADYYCAAWDDSLSGRVFGGGTKLTVLG
notes: mIgG1, Lambda
Efficacy (%) [1]: 57%
IC50 [1]: 20 nM
Efficacy (%) [2]: 76.6%
IC50 [2]: 14 nM

B3: TPP-18068 (antibody, mouse IgG1)
heavy: EVQLLESGGGLVQPGGSLRLSCAASGFTFSSYGMHWVRQAPGKGLEWVSVISYDGSYKYYADSVKGRFTISRDNSKNTLYLQMNSLRAEDTAVYYCAAGVPDYWGQGTLVTVSSAKTTPPSVYPLAPGSAAQTNSMVTLGCLVKGYFPEPVTVTWNSGSLSSGVHTFPAVLQSDLYTLSSSVTVPSSTWPSETVTCNVAHPASSTKVDKKIVPRDCGCKPCICTVPEVSSVFIFPPKPKDVLTITLTPKVTCVVVDISKDDPEVQFSWFVDDVEVHTAQTQPREEQFNSTFRSVSELPIMHQDWLNGKEFKCRVNSAAFPAPIEKTISKTKGRPKAPQVYTIPPPKEQMAKDKVSLTCMITDFFPEDITVEWQWNGQPAENYKNTQPIMDTDGSYFVYSKLNVQKSNWEAGNTFTCSVLHEGLHNHHTEKSLSHSPGK
light: QSVLTQPPSASGTPGQRVTISCTGSSSNIGAGYDVHWYQQLPGTAPKLLIYSNNERPSGVPDRFSGSKSGTSASLAISGLRSEDEADYYCAAWDDSLNGPVFGGGTKLTVLGQPKSSPSVTLFPPSSEELETNKATLVCTITDFYPGVVTVDWKVDGTPVTQGMETTQPSKQSNNKYMASSYLTLTARAWERHSSYSCQVTHEGHTVEKSLSRADCS
notes: mIgG1, Lambda
RGA Efficacy (%) (cynomolgus IL-11): 70%
RGA IC50 (cynomolgus IL-11): 4.1 nM
RGA Efficacy (%) (murine IL-11): 93.6%
RGA IC50 (murine IL-11): 1.2 nM

B4: TPP-29603 (bispecific antibody, IgG1)
chain 1: QVQLVESGGGVVQPGRSLRLSCAASGFTFSHYDMHWVRQAPGKGLEWVAVISYHGSVKFYADSVKGRFTISRDNSKNTLYLQMNSLRAEDTAVYYCARTPGFHFDYWGQGTLVTVSSGGGGSGGGGSGGGGSQSVLTQPPSASGTPGQRVTISCSGSSSNIGSNYVSWYQQLPGTAPKLLIYYDDLRPSGVPDRFSGSKSGTSASLAISGLRSEDEADYYCSAWDDSLSGVVFGGGTKLTVLGGGGSGGGGSGGGGSGVECPPCPAPPVAGPSVFIFPPKPKDVLTITLTPKVTCVVVDISKDDPEVQFSWFVDDVEVHTAQTQPREEQFNSTFRSVSELPIMHQDWLNGKEFKCRVNSAAFPAPIEKTISKTKGRPKAPQVYTIPPCKEQMAKDKVSLWCMITDFFPEDITVEWQWNGQPAENYKNTQPIMDTDGSYFVYSKLNVQKSNWEAGNTFTCSVLHEGLHNHHTEKSLSHSPGK
chain 2: EVQLLESGGGLVQPGGSLRLSCAASGFTFSSYGMHWVRQAPGKGLEWVAVISYDGSYKYYADSVKGRFTISRDNSKNTLYLQMNSLRAEDTAVYYCAAGVPDYWGQGTLVTVSSGGGGSGGGGSGGGGSQSVLTQPPSASGTPGQRVTISCSGSSSNIGSDYDVHWYQQLPGTAPKLLIYSNEERPSGVPDRFSGSKSGTSASLAISGLRSEDEADYYCSAWDSSLSGPVFGGGTKLTVLGGGGSGGGGSGGGGSGVECPPCPAPPVAGPSVFIFPPKPKDVLTITLTPKVTCVVVDISKDDPEVQFSWFVDDVEVHTAQTQPREEQFNSTFRSVSELPIMHQDWLNGKEFKCRVNSAAFPAPIEKTISKTKGRPKAPQVCTIPPPKEQMAKDKVSLSCAITDFFPEDITVEWQWNGQPAENYKNTQPIMDTDGSYFVVSKLNVQKSNWEAGNTFTCSVLHEGLHNHHTEKSLSHSPGK
notes: scFv-kih-mIgG1; bispecific comprising CDRs of TPP-29528 and TPP-29519
Ratio IL-2Ra Binding Signal Antibody/Isotype Control (human IL2Ra): 1.9 ratio

B5: TPP-29697 (bispecific antibody, IgG1)
chain 1: QVQLVESGGGVVQPGRSLRLSCAASGFTFSHYDMHWVRQAPGKGLEWVAVISYHGSVKFYADSVKGRFTISRDNSKNTLYLQMNSLRAEDTAVYYCARTPGFHFDYWGQGTLVTVSSGGGGSGGGGSGGGGSQSVLTQPPSASGTPGQRVTISCSGSSSNIGSNYVSWYQQLPGTAPKLLIYYDDLRPSGVPDRFSGSKSGTSASLAISGLRSEDEADYYCSAWDDSLSGVVFGGGTKLTVLGGGGSGGGGSGGGGSGVECPPCPAPPVAGPSVFLFPPKPKDTLMISRTPEVTCVVVGVSHEDPEVKFNWYVDGVEVHNAKTKPREEQYNSTYRVVSVLTVLHQDWLNGKEYKCKVSNKQLPSPIEKTISKAKGQPREPQVYTLPPCRDELTKNQVSLWCLVKGFYPSDIAVEWESNGQPENNYKTTPPVLDSDGSFFLYSKLTVDKSRWQQGNVFSCSVMHEALHNHYTQKSLSLSPGK
chain 2: EVQLLESGGGLVQPGGSLRLSCAASGFTFSSYGMHWVRQAPGKGLEWVAVISYDGSYKYYADSVKGRFTISRDNSKNTLYLQMNSLRAEDTAVYYCAAGVPDYWGQGTLVTVSSGGGGSGGGGSGGGGSQSVLTQPPSASGTPGQRVTISCSGSSSNIGSDYDVHWYQQLPGTAPKLLIYSNEERPSGVPDRFSGSKSGTSASLAISGLRSEDEADYYCSAWDSSLSGPVFGGGTKLTVLGGGGSGGGGSGGGGSGVECPPCPAPPVAGPSVFLFPPKPKDTLMISRTPEVTCVVVGVSHEDPEVKFNWYVDGVEVHNAKTKPREEQYNSTYRVVSVLTVLHQDWLNGKEYKCKVSNKQLPSPIEKTISKAKGQPREPQVCTLPPSRDELTKNQVSLSCAVKGFYPSDIAVEWESNGQPENNYKTTPPVLDSDGSFFLVSKLTVDKSRWQQGNVFSCSVMHEALHNHYTQKSLSLSPGK
notes: scFv-kih-hIgG1 with Fc-silencing mutations; bispecific comprising CDRs of TPP-29528 and TPP-29519
Ratio IL-2Ra Binding Signal Antibody/Isotype Control (human IL2Ra): 0.8 ratio
